Experimental data published in patent US20120283136A1, “COMPOSITIONS AND METHODS FOR THE RAPID BIOSYNTHESIS AND IN VIVO SCREENING OF BIOLOGICALLY RELEVANT PEPTIDES” (THE UNIVERSITY OF SOUTHERN CALIFORNIA, priority 2009, published 2012).
“Also recorded” adds a separate entry of the source. Where no end group is shown, it is not given here.

Tests used:
LF protease = LF protease (Bacillus anthracis, UniProt P15917); assay type: biochemical, B. anthracis strain Sterne
[1] = Saether et al. (1995); cited from earlier work
trypsin [2] = conditions: read-out: Ki (affinity for trypsin); cited from earlier work
trypsin [3] = molecular target: trypsin (Sus scrofa, UniProt P00761); assay: Competing trypsin-binding experiments (sequential extraction with limiting trypsin-sepharose); conditions: in vitro and in vivo cyclized libraries, trypsin-sepharose under competing conditions (about 20% of beads required for stoichiometric binding), MCoTI-I wt as internal reference
Chain of trypsin (Sus scrofa, UniProt P00761) (P00761 9-231): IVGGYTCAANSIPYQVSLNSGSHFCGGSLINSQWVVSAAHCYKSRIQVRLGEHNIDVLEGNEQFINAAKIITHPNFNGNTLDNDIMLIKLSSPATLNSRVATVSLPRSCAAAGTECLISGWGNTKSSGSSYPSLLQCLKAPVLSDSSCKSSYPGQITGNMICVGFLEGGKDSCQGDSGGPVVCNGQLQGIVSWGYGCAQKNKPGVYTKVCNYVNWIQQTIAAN

H-RRKKVYPYPMEGTIA-NH2 [consensus LF substrate peptide made by Fmoc solid-phase synthesis]
time for cleavage of the P1-P1′ peptide bond by LF (LF protease): less than 15 minutes

Kalata B1 (cyclo(GLPVCGETCVGGTCNTPGCTCSWPVCTRN); ends not checked; also: three disulfide bonds (cystine knot), pairing not given here; UniProt P56254 89-117, looked up) [first cyclotide to be discovered, from Oldenlandia affinis]
oral bioavailability [1]: orally bioavailable

MCoTI-II (cyclo(SGSDGGVCPKILKKCRRDSDCPGACICRGNGYCG); ends not checked; also: three disulfide bonds (cystine knot), pairing not given here; UniProt P82409 1-34, looked up)
Ki (trypsin [2]): ~2 pM

Q7G (CGSGSDGGVCPKILGRCRRDSDCPGACICRGNGY; not fully specified (bridges); ends and bridges not checked)
relative affinity for trypsin versus MCoTI-I wt (elution profile) (trypsin [3]): lower affinity; also recorded: weaker affinity
